{"source": "patent US20070141060A1", "about": "“Hmgb1 protein inhibitors for the regulation of smooth muscle cells and endothelial cells profileration” (BIO3 RESEARCH SRL, priority 2004, published 2007)", "molecules": {"B1": {"name": "HMGB1: HMGB1 protein, released after mechanical injury of cells; induces smooth muscle cell and endothelial cell proliferation (protein, UniProt P09429 1-215, looked up)", "High mobility group protein B1": "MGKGDPKKPRGKMSSYAFFVQTCREEHKKKHPDASVNFSEFSKKCSERWKTMSAKEKGKFEDMAKADKARYEREMKTYIPPKGETKKKFKDPNAPKRPPSAFFLFCSEYRPKIKGEHPGLSIGDVAKKLGEMWNNTAADDKQPYEKKAAKLKEKYEKDIAAYRAKGKPDAAKKGVVKAEKSKKKKEEEEDEEDEEDEEEEEDEEDEDEEEDDDDE"}}, "format_in_all_cases": "cell-based", "key": {"bovine smooth muscle": {"test_system": "bovine smooth muscle", "assay": "Proliferation of bovine smooth muscle cells (cell counting)", "experimental": "(§1) Bovine aorta endothelial cells or bovine smooth muscle at an early passage were cultured in DMEM+10% FCS. Cells were then kept for 16 hours in DMEM in absence of FCS, and plated in 6 cm wells of 6-well plates (about 50 000 cells per well). Cells were then cultured, in triplicate, in the presence of DMEM alone, DMEM+10% FCS, or DMEM+different concentrations of HMGB1. At 24 hours intervals cells were counted under the microscope."}, "[1]": {"test_system": "Bovine aorta endothelial cells", "assay": "Proliferation of bovine aorta endothelial cells (cell counting)", "conditions": "DMEM + different concentrations of HMGB1, no FCS; cells counted at 24 hours intervals; FIG. 1", "experimental": "as §1"}, "3T3 mouse fibroblasts": {"test_system": "3T3 mouse fibroblasts", "assay": "Proliferation of 3T3 mouse fibroblasts in similar conditions", "conditions": "data not shown"}}, "data": [{"molecule": "B1", "values": [{"measurement": "cell division / proliferation of BSMC", "setting": "bovine smooth muscle; DMEM + different concentrations of HMGB1, no FCS, single addition, cells counted at 24 hours intervals, FIG. 1", "result": "a couple of rounds of division in BSMC, followed by quiescence"}, {"measurement": "cell proliferation of BSMC on repeated addition", "setting": "bovine smooth muscle; repeated addition of HMGB1 every 24 hours, data not shown", "result": "keep proliferating"}, {"measurement": "cell division / proliferation of BAEC", "setting": "[1]", "result": "keep dividing"}, {"measurement": "proliferation of 3T3 mouse fibroblasts", "setting": "3T3 mouse fibroblasts", "result": "does not cause the proliferation"}]}]}
